Source: patent publication US20230137139A1, “BIOSYNTHESIS OF CANNABINOIDS AND C[…]” (priority 2020, published 2023)
Positions count from the first letter of the chain named.

B1: t865726 (protein)
chain: MGNTTSIAGRDCLISALGGNSALAVFPNELLWDADVHEYNLNLPVTPAAITYPETAAQIAGVVKCASDYDYKVQARSGGHSFGNYGLGGADGAVVVDMKHFTQFSMDDETYEAVIGPGTTLNDVDIELYNNGKRAMAHGVCPTIKTGGHFTIGGLGPTARQWGLALDHVEEVEVVLANSSIVRASNTQNQDVFFAVKGAAANFGIVTEFKVRTEPAPGLAVQYSYTFNLGSTAEKAQFVKDWQSFISAKNLTRQFYSNMVIFDGDIILEGLFFGSKEQYDALGLEDHFAPKNPGNILVLTDWLGMVGHALEDTILKLVGNTPTWFYAKSLGFRQDTLIPSAGIDEFFEYIANHTAGTPAWFVTLSLEGGAINDVAEDATAYAHRDVLFWVQLFMVNPVGPISDTTYEFTDGLYDVLARAVPESVGHAYLGCPDPRMEDAQQKYWRTNLPRLQELKEELDPKNTFHHPQGVMPA
B2: t878465 (protein)
chain: B1 chain with D33T, N202S, S257N, P472A
modifications: expressed in S. cerevisiae strain
B3: t865723 (protein)
chain: B1 chain with D33T, Y129W, S257N
B4: t865755 (protein)
chain: B1 chain with D33T, S257N, L392H
modifications: expressed in S. cerevisiae strain
B5: t865720 (protein)
chain: B1 chain with D33T, N122G, I126K, S257N
B6: t865751 (protein)
chain: B1 chain with D33T, S257N, S423A
modifications: expressed in S. cerevisiae strain
B7: t865741 (protein)
chain: B1 chain with D33T, Y256M, S257N
B8: t865718 (protein)
chain: B1 chain with D33T, S257N, P472R
B9: t865747 (protein)
chain: B1 chain with D33T, S257N, V398A
modifications: expressed in S. cerevisiae strain
B10: t865736 (protein)
chain: B1 chain with D33T, S257N, N295S
B11: t865748 (protein)
chain: B1 chain with D33T, Y39F, S257N
modifications: expressed in S. cerevisiae strain
B12: t865742 (protein)
chain: B1 chain with D33T, E112T, S257N
B13: t865745 (protein)
chain: B1 chain with D33T, V63I, S257N
modifications: expressed in S. cerevisiae strain
B14: t865732 (protein)
chain: B1 chain with D33T, S257N, H426Y

Each molecule was assayed on CBCA, THCA, and CBDA production (assay: In vivo TS activity assay, Example 2 protein engineering of A. niger CBCAS, cultures fed olivetolic acid). Details: secondary screen.
Type: cell-based, S. cerevisiae
Method in brief: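 CBCA, THCA and CBDA were measured by LC-MS in methanol extracts of yeast cultures expressing mutant A. niger CBCAS. Cultures were induced at 20 °C with galactose and fed 1 mM olivetolic acid daily for 4 days, then buffered with 100 mM sodium citrate pH 5.5. Secondary screen: quadruplicates fed 1 mM olivetolic or divaric acid.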

Molecule	average CBCA titer compared with the A. niger positive control
B1	higher
B2	higher

Same assay, conditions: secondary screen, olivetolic acid (Table 8)

Molecule	Mean CBCA	Mean CBDA	Mean THCA
B1	41981.73 µg/L	9985.90 µg/L	2186.01 µg/L
B3	22893.08 µg/L	7334.92 µg/L	1788.74 µg/L
B4	19432.21 µg/L	4507.57 µg/L	1001.22 µg/L
B5	27895.13 µg/L	7663.58 µg/L	1543.57 µg/L
B6	31396.25 µg/L	8775.99 µg/L	1709.83 µg/L
B2	41094.07 µg/L	9826.17 µg/L	2184.77 µg/L
B7	15982.40 µg/L	4419.64 µg/L	957.33 µg/L
B8	28669.67 µg/L	7340.65 µg/L	1640.20 µg/L
B9	18021.77 µg/L	4783.24 µg/L	1188.04 µg/L
B10	24918.92 µg/L	6931.79 µg/L	1690.72 µg/L
B11	21260.42 µg/L	6161.32 µg/L	1575.92 µg/L
B12	31427.04 µg/L	9022.22 µg/L	2036.13 µg/L
B13	27923.31 µg/L	7360.14 µg/L	1963.25 µg/L
B14	22672.81 µg/L	6720.79 µg/L	1523.15 µg/L

Same assay, conditions: share of terminal cannabinoid product profile

Molecule	% CBCA	% CBDA	% THCA
B1	77.52%	18.44%	4.04%
B3	71.50%	22.91%	5.59%
B4	77.91%	18.07%	4.01%
B5	75.18%	20.66%	4.16%
B6	74.96%	20.95%	4.08%
B2	77.38%	18.50%	4.11%
B7	74.83%	20.69%	4.48%
B8	76.15%	19.50%	4.36%
B9	75.11%	19.94%	4.95%
B10	74.29%	20.67%	5.04%
B11	73.32%	21.25%	5.43%
B12	73.97%	21.24%	4.79%
B13	74.97%	19.76%	5.27%
B14	73.34%	21.74%	4.93%

What follows are molecules tested on CBCVA, THCVA, and CBDVA production (assay: In vivo TS activity assay, Example 2 protein engineering of A. niger CBCAS, cultures fed divaric acid). Details: S. cerevisiae strains expressing A. niger CBCAS mutants, secondary screen, fed divaric acid.
Type: cell-based, S. cerevisiae
Method in brief: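 Quantification by LC-MS of methanol-extracted production cultures, strains in quadruplicate. Yeast carrying mutant A. niger CBCAS (MFalpha2 N-terminal and HDEL C-terminal signal peptides) were induced 4 days at 20 °C in YEP+4% galactose fed 1 mM divaric acid, re-dosed every 24 h with 2% galactose and 1 mM divaric acid, after 2 days of dextrose preculture at 30 °C; 100 mM citrate pH 5.5 was then added for 2 more days.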

Molecule	Mean CBCVA	Mean CBDVA	Mean THCVA
B1	3644.48 µg/L	0.00 µg/L	1740.51 µg/L
B3	4223.36 µg/L	0.00 µg/L	2125.21 µg/L
B4	3729.91 µg/L	0.00 µg/L	1768.56 µg/L
B5	4276.65 µg/L	0.00 µg/L	2090.51 µg/L
B6	3998.68 µg/L	0.00 µg/L	1894.39 µg/L
B2	4314.23 µg/L	0.00 µg/L	2144.09 µg/L
B7	4388.54 µg/L	0.00 µg/L	2033.77 µg/L
B8	5888.44 µg/L	0.00 µg/L	2516.89 µg/L
B9	5571.51 µg/L	0.00 µg/L	2154.32 µg/L
B10	3847.79 µg/L	0.00 µg/L	1963.40 µg/L
B11	3759.89 µg/L	0.00 µg/L	1591.63 µg/L
B12	2864.87 µg/L	0.00 µg/L	1514.38 µg/L
B13	7068.26 µg/L	0.00 µg/L	2991.05 µg/L
B14	4734.85 µg/L	0.00 µg/L	2408.74 µg/L

Same assay, conditions: secondary screen

Molecule	average CBCVA titer compared with the A. niger positive control
B1	higher
B3	higher
B4	higher
B5	higher
B6	higher
B2	higher
B7	higher
B8	higher
B9	higher
B10	higher
B11	higher
B13	higher
B14	higher

Same assay, conditions: share of terminal cannabinoid product profile, fed divaric acid

Molecule	% CBCVA	% CBDVA	% THCVA
B1	67.68%	0.00%	32.32%
B3	66.52%	0.00%	33.48%
B4	67.84%	0.00%	32.16%
B5	67.17%	0.00%	32.83%
B6	67.85%	0.00%	32.15%
B2	66.80%	0.00%	33.20%
B7	68.33%	0.00%	31.67%
B8	70.06%	0.00%	29.94%
B9	72.12%	0.00%	27.88%
B10	66.21%	0.00%	33.79%
B11	70.26%	0.00%	29.74%
B12	65.42%	0.00%	34.58%
B13	70.27%	0.00%	29.73%
B14	66.28%	0.00%	33.72%
